One protein from publication PMC3174154, “Protein-Protein Interactions in Crystals of the Human Receptor-Type Protein Tyrosine Phosphatase ICA512 Ectodomain” (PLoS ONE, 2011) can be followed below.

Data set [1] concerns the molecule itself. The data set can be described thus: SEC; Rs against protein concentration in the eluting peak; monomer-dimer equilibrium fitted (dimer to monomers); the text names size exclusion chromatography and light scattering. In general terms: SEC sorts molecules by how far they enter the pores of the column.
Data set [2] concerns the molecule itself. Description: SEC; Superose 12, 20°C, 20 mM sodium phosphate, 150 mM NaCl, pH 7.0; each variant injected at 500 µM in 100 µl, alone or preincubated and injected together.

B1: mature ectodomain of ICA512 (ME ICA512), wild type, residues 470 to 558 (domain or fragment, human, UniProt Q16849 470-558, looked up)
chain: EYGYIVTDQKPLSLAAGVKLLEILAEHVHMSSGSFINISVVGPALTFRIRHNEQNLSLADVTQQAGLVKSELEAQTGLQILQTGVGQRE
notes: the results say 470 to 556; The methods give 470-558, the results 470-556; also called wild-type ME ICA512; wild type variant
Protein B1 came in with a Kd in data set [1] of 800 nM. For the same protein, the “stoichiometry N” value in data set [2] came to 2.

Usually Kd stands for the constant that tells how readily two partners part at equilibrium. As usually defined, the stoichiometry N is the number of molecules, sites or subunits per partner or assembly.
